The source of these data is patent US20030212253A1 (AMERICAN NATIONAL RED CROSS, published 2003).

Non-standard residues stand in square brackets, D forms with d. No end group written: not given here. 2Nal = N[C@@H](Cc1ccc2ccccc2c1)C(=O)O; Ahx = NCCCCCC(=O)O Where only a bound is given, the exact number is not on record here.

For test [1], the target named is fibrinogen (human plasma) (human) (UniProt P02671). Description: affinity chromatography of 5 ml plasma on 0.8 ml peptide resin column.
The target in test [2] is vWF/fVIII complex (human plasma) (human) (UniProt P04275). Description: batch binding of pooled human plasma to peptide resin, then column elution; fVIII chromogenic assay.
The target is the same in test [3]. Description: batch binding of 20 ml pooled human plasma to 0.8 ml peptide resin, then column elution; load 21.4 IU; fVIII chromogenic assay.
Test [4] has the same target. The experiment in a line: batch binding of pooled human plasma to peptide resin, then column elution; load 8.46 IU; fVIII coagulation assay.
Test [5] shares this target. Description: batch binding of pooled human plasma to peptide resin, then column elution; fVIII coagulation assay.
The target of test [6] is fibrinogen (human plasma) (human) (UniProt P02671). Description: affinity chromatography of plasma on peptide resin, Evaluation 2, load 51 mg; nephelometric fibrinogen antigen.
Test [7] shares this target. The experiment in a line: affinity chromatography of plasma on peptide resin, ligand density 0.67-0.94 mmol/g resin.
The target is the same in test [8]. Description: affinity chromatography of plasma on peptide resin, Evaluation 1, load 51 mg; nephelometric fibrinogen antigen.
Test [9] shares this target. Description: affinity chromatography of plasma on peptide resin, Evaluation 1; nephelometric fibrinogen antigen.
The target is the same in test [10]. Description: affinity chromatography of plasma on peptide resin, Evaluation 2; nephelometric fibrinogen antigen.
Another test has as its target T1, albumin (human plasma) (human, UniProt P02768 25-609).
T1 construct: mature
Description: affinity chromatography of fibrinogen- and Apo-A1-depleted plasma on peptide resin, 0.020 M sodium citrate; nephelometry. As to the method: Fibrinogen and Apo-A1 lipoprotein-depleted plasma (prepared in Example 5) was loaded at a linear velocity of 30 cm/hour (0.4 ml/min; RT=5.1) onto 2.0 ml column (CF=0.785 cm²) that had been equilibrated with 0.14 M NaCl, 0.020 M sodium citrate, pH 7.0 (EQ buffer). After the column was washed with EQ buffer and 2.0 M NaCl, 0.020 M sodium citrate, pH 6.0, to baseline, the API protein was eluted with 2.0 M NaCl, 1% Tween 20, 0.020 M sodium citrate, pH 6.0. The column was regenerated with 2.0 M guanidine-HCl, 2% Sarkosyl and 2% acetic acid and stored in 20% methanol. […] Not all of the API was quantitatively eluted, but could be eluted using 2M guanidine. Purification of API protein to approximately 70% purity was accomplished with ligand HFVAPH (SEQ ID NO: 46) (isolated from an L-Library).

For “HWQ (SEQ ID NO: 7) peptide attached to a chromatography resin”, in [1], the dynamic resin capacity was 5 to 8 mg.

B1: D-EADna2′ED (SEQ ID NO: 66) resin (peptide)
peptide: EAD[2Nal]ED
modifications: not fully specified (C-terminus)
For B1, in [2], the FVIII recovery in elution 1, 0.75 M NaCl (%), chromogenic assay amounted to 21.5%; the FVIII recovery in elution 2, 1.0 M NaCl (%), chromogenic assay came to 0%; the FVIII recovery in flow-through (%), chromogenic assay came to 7.5%; the FVIII recovery in wash, 0.5 M NaCl (%), chromogenic assay stood at 5.6%. Also, in [2], the total FVIII in elution 1, 0.75 M NaCl (IU), chromogenic assay worked out at 4.6 IU; the total FVIII in elution 2, 1.0 M NaCl (IU), chromogenic assay is 0 IU; the total FVIII in wash, 0.5 M NaCl (IU), chromogenic assay amounted to 1.2 IU. The molecule further showed a total FVIII in flow-through (IU), chromogenic assay in test [3] of 1.6 IU. In test [4], this molecule showed a total FVIII in flow-through (IU), coagulation assay of 1.6 IU. In [5], this molecule returned an FVIII recovery in elution 1, 0.75 M NaCl (%), coagulation assay of 46%; an FVIII recovery in elution 2, 1.0 M NaCl (%), coagulation assay of 0%; an FVIII recovery in flow-through (%), coagulation assay of 18.9%; an FVIII recovery in wash, 0.5 M NaCl (%), coagulation assay of 0%. For the same molecule, in [5], the total FVIII in elution 1, 0.75 M NaCl (IU), coagulation assay amounted to 3.9 IU; the total FVIII in elution 2, 1.0 M NaCl (IU), coagulation assay is 0 IU; the total FVIII in wash, 0.5 M NaCl (IU), coagulation assay was 0 IU.

B2: D-ARQFDF (SEQ ID NO: 20) peptide displayed on ToyoPearl AF-Amino 650 M resin (peptide)
peptide: [dA]RQFDF[Ahx]
modifications: also: D- prefix in name, which residues are D is not settled
In the case of B2, the total fibrinogen in elution in [6] stood at 54 mg; in test [8], 46 mg. Besides, in test [7], the dynamic resin capacity is 6 to 8 g/L of resin. Moreover, the fibrinogen in flow thru + post wash in test [9] and in test [10] was < 0.15 mg/mL each time. Moreover, the values for the recovery of fibrinogen in elution (%) in [9] and in [10] were 91% and 100%, respectively.

B3: L-HFVAPH (SEQ ID NO: 46) peptide ligand displayed on resin (peptide)
peptide: HFVAPH
modifications: also: immobilised on resin via C-terminus
notes: Immobilised on chromatography resin
With B3, in the test with albumin (human plasma), the binding result is recorded as “no binding”.
